# Publication PMC3612083, “Imaging Beads-Retained Prey Assay for Rapid and Quantitative Protein-Protein Interaction” (PLoS ONE, 2013)
# No end group written: not given here.
# T1: GST-GRIP Y2177A (Golgin245 GRIP Y2177A in pGEB) (UniProt Q13439 2168-2215, Y2177A)
# T1 construct: GRIP domain of Golgin245 with Y2177A; insert moved from the pEGFP-C2 construct by EcoRI/BamHI into pGEB; pGEB is a modified pGEX-KG vector; also called Y2177A mutant
# T1 chain (looked up): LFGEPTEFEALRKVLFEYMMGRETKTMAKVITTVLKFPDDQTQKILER
# T2: GST-Arl1 (UniProt P61212 1-181)
# T2 construct: Arl1; also called Arl1-GMPPNP; source: loaded with GMPPNP or GDP on the beads
# T2 sequence (looked up): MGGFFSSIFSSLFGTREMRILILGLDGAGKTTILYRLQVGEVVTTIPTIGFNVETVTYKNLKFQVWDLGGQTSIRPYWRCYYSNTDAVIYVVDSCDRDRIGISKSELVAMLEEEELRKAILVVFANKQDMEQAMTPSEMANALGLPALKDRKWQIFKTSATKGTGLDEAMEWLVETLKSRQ
# B1: Arl1-GFP (wild type rat Arl1 in pEGFP-N1) (natural protein, UniProt P61212 1-181, looked up)
# chain: T2 sequence (looked up)
# notes: Arl1, ARF family small GTPase, rat, wild type; source: HEK293, transfected, in lysate
# B2: GFP-GRIP (Golgin245 GRIP domain wild type in pEGFP-C2) (domain or fragment, UniProt Q13439 2168-2215, looked up)
# chain: {GFP}-LFGEPTEFEYLRKVLFEYMMGRETKTMAKVITTVLKFPDDQTQKILER
# notes: GRIP domain of Golgin245; source: HEK293, transfected, in lysate
# B3: GFP-GRIP (Y2177A) (Golgin245 GRIP domain Y2177A mutant in pEGFP-C2) (domain or fragment, UniProt Q13439 2168-2215, looked up)
# chain: {GFP}-LFGEPTEFEALRKVLFEYMMGRETKTMAKVITTVLKFPDDQTQKILER
# notes: GRIP domain of Golgin245 with Y2177A; source: HEK293, transfected, in lysate
# Tests used:
# [1] = molecular target: T1, GST-GRIP Y2177A (Golgin245 GRIP Y2177A …); test: pull-down; imaging beads-retained prey (IBRP) assay: GST-bait on glutathione beads (16 µg/µl), HEK293 lysate with GFP-prey, 100 µM GMPPNP; 30 min at 4°C, washes with 300 mM NaCl, bead fluorescence imaged; GFP lysate as control; conditions: one partner purified
# [2] = molecular target: T2, GST-Arl1; test: pull-down; IBRP assay: GST-Arl1 on glutathione beads (13 µg/µl) loaded with GMPPNP, HEK293 lysate with GFP-prey; bead fluorescence imaged; conditions: one partner purified
binder,measurement,setting,value
B1,fold reduction of the interaction (IBRP affinity) against wild type GST-GRIP,[1],> 14 fold
B2,"relative IBRP affinity with GMPPNP, fold of that with GDP",[2],3 fold
B3,fold reduction of relative IBRP affinity against wild type GRIP domain,[2],~80 fold
